Target: the molecule itself
Test: SEC

Protein	stoichiometry N
Shewanella oneidensis cytochrome c peroxidase, wild type (enzyme) AEPIEVITPAKITEPEKVELGKMLFFEPRLSKSGFISCNSCHNLSTGGVDALPTSIGHHWQEGPINSPTVLNADFMLAQFWDGRASNLKEQAAGPIANPKEMGFTHELATETIASMPAYRARFAKVYGDEKVDIDRLTDAIAAFEKTLVTPNSPFDQYLLGKQDAISGDAKAGYQLFKDKGCVSCHNGPAVGGTMFMKMGLIKPFHTNNPAEGRKGVTGKDADKFVFKVPTLRNIELTYPYFHDGSVWTLEEAVNTMADIQLGQKLTEKETKEMVAFLNSLTGEQPQISLPILPPSNKETPRPVPFATGAK	2
Shewanella oneidensis cytochrome c peroxidase E321K charge reversal mutant (enzyme) AEPIEVITPAKITEPEKVELGKMLFFEPRLSKSGFISCNSCHNLSTGGVDALPTSIGHHWQEGPINSPTVLNADFMLAQFWDGRASNLKEQAAGPIANPKEMGFTHELATETIASMPAYRARFAKVYGDEKVDIDRLTDAIAAFEKTLVTPNSPFDQYLLGKQDAISGDAKAGYQLFKDKGCVSCHNGPAVGGTMFMKMGLIKPFHTNNPAEGRKGVTGKDADKFVFKVPTLRNIELTYPYFHDGSVWTLEEAVNTMADIQLGQKLTEKETKEMVAFLNSLTGEQPQISLPILPPSNKKTPRPVPFATGAK	2
